# According to patent US20060246519A1, “MONOMERIC STREPTAVIDIN MUTEINS” (priority 2005, published 2006):
# Tests used:
# [1] = Cross-linking reactions with sulfo-EGS; format: physicochemical; settings: 10-fold molar excess sulfo-EGS, 30 min, room temperature
# Description: Cross-linking of streptavidin and its muteins was carried out using sulfo-EGS [ethylene glycolbis(sulfosuccinimidyl succinate)] (Pierce) as the cross-linker. A typical reaction mixture (20 μl) contained the purified mutein (0.2 5 mg/ml) and sulfo-EGS (10-fold molar excess over the protein) in PBS. After 30 min at room temperature, the reaction was quenched with Tris-HCl (30 mM, pH 7.5). Aliquots of the cross-linking reaction samples were boiled and examined by SDS-PAGE. Lysozyme (Sigma, 0.25 mg/ml) was included in the study to help establish the optimal reaction conditions.
# [2] = system: Biotin-conjugated bovine serum albumin; assay: Kinetic analysis by surface plasmon resonance BIAcoreX biosensor; format: binding; settings: interaction with biotin
# Description: FIG. 8: Kinetic parameters for the interaction between M4 streptavidin mutein and biotin as monitored by BIAcore biosensor. A. On-rate (ka) determination. ka is derived from association analysis. kd is the slope of the plot of In(Ro/Rt) versus (t−to) where Ro is the response at an arbitrary starting time to; Rt is the response at time t.
# The kinetic parameters (both on- and off-rates for interaction with biotin) of streptavidin muteins were determined in real time using the surface plasmon resonance based BIAcoreX biosensor. Biotin-conjugated bovine serum albumin immobilized on CM5 sensor chip was used to study the reversibility of biotin binding (Qureshi, 2001).
# [3] = system: proteinase K; assay: Proteinase K digestion of streptavidin and its muteins; format: biochemical
# Description: Purified streptavidin and its muteins (30 μM monomer) were treated with proteinase K (Invitrogen, 5 μM) for 15 min at 30° C. in 50 mM Tris-HCl containing 5 mM CaCl2, pH 8.0. The reaction was stopped by precipitation with trichloroacetic acid (Ellison, 1995). Boiled samples of precipitated proteins were resolved by reducing SDS-PAGE. The same analysis was performed with streptavidin samples treated with biotin (1 mM final concentration) prior to proteinase K digestion.
# [4] = Apparent molecular mass by gel filtration (Bio-Prep SE 100/17); format: physicochemical
# Text: FIG. 6: Gel filtration profiles of streptavidin muteins. FIG. 6A. […] Bovine gamma-globulin (158 kDa), bovine serum albumin (66 kDa), ovalbumin (44 kDa), myoglobin (17 kDa) and vitamin B-12 (1.35 kDa) were used as molecular mass markers (closed circles) to calibrate the column. The logarithm of molecular mass was plotted versus Kav (Kav=(Ve−Vo)/(Vt−Vo); Ve, elution volume; Vo, void volume; Vt, bed volume). Positions of wild-type streptavidin (wt) and streptavidin muteins are represented by solid squares. FIG. 6B. Elution profile of M4 mutein (loaded at 2 mg/ml) on the gel filtration column.
# (§1) Molecular mass of purified streptavidin and its muteins was estimated by both gel filtration and dynamic light scattering studies. Gel filtration was performed on the Bio-Rad biologic workstation equipped with a Bio-Prep SE 100/17 column that had been calibrated with molecular mass protein markers (Bio-Rad). Molecular mass was also estimated from the hydrodynamic radius of the mutein obtained using a DynaPro MS dynamic light scattering instrument (Protein Solutions, USA) that had been calibrated with lysozyme. Protein samples (2-3 mg/ml in PBS) were passed through a 0.02 μm filter (Whatman Anodisc 13) immediately prior to measurement. The size distribution profile was analyzed using the manufacturer's Dynamics V6 software.
# [5] = Degree of monomerization of non-boiled samples in SDS-PAGE / Western blot; format: physicochemical
# Description: FIG. 3: Western blot analysis of cell culture supernatants from B. subtilis strains producing streptavidin muteins carrying a single mutation. 15 μl of non-boiled sample of culture supernatant was loaded to each lane. Samples on the left set were collected from B. subtilis strains cultured in super-rich medium without additional supplement of biotin. Samples on the right set were collected from B. subtilis strains cultured in super-rich medium with additional supplementation of biotin (20 μM). The blot was probed with polyclonal antibodies against streptavidin and developed using 4-chloro-1-napthol (Bio-Rad) as the colour development agent. […] M, molecular weight markers; wt, wild type streptavidin.
# FIG. 4: Analysis of culture supernatants from B. subtilis strains producing streptavidin muteins carrying different combinations of mutations. All these strains were cultivated in super-rich medium supplemented with biotin (20 μM). The 15 μl of non-boiled samples of culture supernatants were loaded. FIG. 4A. Coomassie blue stained SDS-polyacrylamide gel. Bands corresponding to tetrameric and monomeric streptavidin are marked by an asterisk and an arrowhead, respectively. FIG. 4B. Western blot probed with polyclonal antibodies against streptavidin. M, molecular weight markers; wt, wild type streptavidin; AK, mutein (D61A, W 120K); M1, mutein (T76R); M2, mutein (T76R, V125R); M4, mutein (T76R, V125R, V55T, L109T); C, negative control.
# Streptavidin muteins carrying a single amino-acid change at the selected site may be produced in their soluble form by B. subtilis via secretion. Analysis of non-boiled culture supernatants by SDS-PAGE offers a quick screen for the mutation effect (Qureshi, 2001). Weaker subunit interaction would result in a higher percentage of the sample in the monomeric state on the SDS-polyacrylamide gel. Since biotin can strengthen subunit interaction, samples were analyzed in the presence or absence of biotin (Laitinen, 2001; Gonzalez, 1999).
# In single mutation muteins, the impact of the mutation on weakening of the subunit interaction followed the order T76R>V125R>[…]≈V55R>V55T (FIG. 3 and Table 4). The T76R mutein (referred to herein as M1) existed 100% in the monomeric state on the SDS-polyacrylamide gel even in the presence of biotin. In contrast, V55T mutation had the lowest impact, with the majority of molecules in the tetrameric state even in the absence of added biotin. Presence of biotin shifts the majority of the three remaining muteins (V125R, V125T and V55R) to the tetrameric state. Changing valine to arginine exerted greater impact than changing it to threonine. This is true for both Val-125 and Val-55.
# [6] = Dynamic light scattering (hydrodynamic radius, estimated molecular mass); format: physicochemical; settings: for M (kDa) (Dynamic light scattering): calculated from measured RH using a protein calibration curve
# Description: as §1
# [7] = independent of the presence or absence of biotin, 5 μM proteinase K, 15 min, 30° C.
Substance,Oligomeric state after cross-linking with sulfo-EGS (SDS-PAGE) [1],M (kDa) (Gel filtration) ([4]; no biotin),Monomer (percentage of streptavidin in monomeric state) ([5]; No additional biotin) [%],Monomer (percentage of streptavidin in monomeric state) ([5]; With additional biotin (20 μM)) [%],RH (nm) (Dynamic light scattering) ([6]; no biotin),M (kDa) (Dynamic light scattering) ([6]; no biotin),also measured
"AK: prior art streptavidin mutein carrying double mutations D61A, W120K [reference compound]",cross-linking profile very similar to that of the wild type streptavidin,45.66,100,100,3.20 ± 0.23,50,"ka, on-rate [2]: 1.46 ± 0.05 × 10^4 M^−1s^−1; kd, off-rate [2]: 3.59 ± 0.03 × 10^−3 s^−1; Susceptibility to proteinase K digestion ([3]; absence of biotin): most of it was digested; Susceptibility to proteinase K digestion ([3]; biotin present (1 mM)): much more resistant; M (kDa) (Gel filtration) ([4]; +biotin): 50.12 kDa; RH (nm) (Dynamic light scattering) ([6]; +biotin): 3.54 ± 0.38 nm; M (kDa) (Dynamic light scattering) ([6]; +biotin): 63 kDa"
M1: streptavidin mutein carrying the single mutation T76R,–,–,100,100,–,–,–
M2: streptavidin double mutant carrying T76R and V125R mutations,migrated as monomers,19.95,100,100,1.98 ± 0.24,17,"ka, on-rate [2]: 1.88 ± 0.07 × 10^4 M^−1s^−1; kd, off-rate [2]: 3.22 ± 0.01 × 10^−3 s^−1; Susceptibility to proteinase K digestion [3, 7]: completely digested; M (kDa) (Gel filtration) ([4]; +biotin): 23.44 kDa; RH (nm) (Dynamic light scattering) ([6]; +biotin): 2.09 ± 0.29 nm; M (kDa) (Dynamic light scattering) ([6]; +biotin): 18 kDa"
V55R: streptavidin mutein carrying the single mutation V55R,–,–,20,10,–,–,–
V55T: streptavidin mutein carrying the single mutation V55T,–,–,1,0,–,–,–
V125R: streptavidin mutein carrying the single mutation V125R,–,–,92,12,–,–,–
V125T: streptavidin mutein carrying the single mutation V125T,–,–,25,0,–,–,–
Wt: wild-type streptavidin produced by B. subtilis WB800 [reference compound],most of these subunits were cross-linked to dimers and higher oligomers,56.23,–,–,3.69 ± 0.19,69,"Susceptibility to proteinase K digestion [3, 7]: converted to the core form; M (kDa) (Gel filtration) ([4]; no biotin, listed as wild-type streptavidin): 56 kDa"
